Some targets named below: human Sirt5 (human) (UniProt Q9NXA8); human Sirt1 (human) (UniProt Q96EB6); human Sirt3 (human) (UniProt Q9NTG7); human Sirt2 (human) (UniProt Q8IXJ6).
What all share (assay): cell-based or functional assay

Sequence of human Sirt2 (human) (Q8IXJ6 whole entry): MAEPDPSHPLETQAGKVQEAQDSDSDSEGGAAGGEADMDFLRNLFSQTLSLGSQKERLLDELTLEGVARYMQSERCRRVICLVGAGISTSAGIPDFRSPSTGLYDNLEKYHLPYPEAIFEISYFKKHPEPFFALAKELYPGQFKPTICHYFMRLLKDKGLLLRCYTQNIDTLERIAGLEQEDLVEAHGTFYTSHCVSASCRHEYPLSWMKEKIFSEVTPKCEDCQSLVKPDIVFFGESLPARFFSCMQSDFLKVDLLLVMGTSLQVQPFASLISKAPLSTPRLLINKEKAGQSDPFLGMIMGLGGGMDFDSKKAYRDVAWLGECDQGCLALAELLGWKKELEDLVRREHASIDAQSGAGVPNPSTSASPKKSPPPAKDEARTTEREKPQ
Sequence of human Sirt3 (human) (Q9NTG7 102-399 limits assumed): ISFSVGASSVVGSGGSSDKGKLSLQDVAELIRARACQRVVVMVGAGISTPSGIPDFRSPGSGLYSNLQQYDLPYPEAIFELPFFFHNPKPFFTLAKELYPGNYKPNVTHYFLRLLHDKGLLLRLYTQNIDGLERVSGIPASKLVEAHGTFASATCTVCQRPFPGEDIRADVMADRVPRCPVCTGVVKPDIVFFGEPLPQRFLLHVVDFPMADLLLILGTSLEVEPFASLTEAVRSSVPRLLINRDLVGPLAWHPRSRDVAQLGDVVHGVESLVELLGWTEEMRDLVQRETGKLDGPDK
Sequence of human Sirt5 (human) (Q9NXA8 whole entry): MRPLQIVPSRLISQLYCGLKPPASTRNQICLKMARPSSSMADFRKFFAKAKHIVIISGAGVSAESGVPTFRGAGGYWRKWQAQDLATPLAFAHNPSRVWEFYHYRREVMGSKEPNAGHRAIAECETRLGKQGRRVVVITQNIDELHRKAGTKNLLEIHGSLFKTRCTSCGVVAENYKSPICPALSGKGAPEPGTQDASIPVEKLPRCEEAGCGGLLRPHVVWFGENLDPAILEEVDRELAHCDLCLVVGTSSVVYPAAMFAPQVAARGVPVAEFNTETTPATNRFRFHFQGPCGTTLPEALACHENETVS
Sequence of human Sirt1 (human) (Q96EB6 whole entry): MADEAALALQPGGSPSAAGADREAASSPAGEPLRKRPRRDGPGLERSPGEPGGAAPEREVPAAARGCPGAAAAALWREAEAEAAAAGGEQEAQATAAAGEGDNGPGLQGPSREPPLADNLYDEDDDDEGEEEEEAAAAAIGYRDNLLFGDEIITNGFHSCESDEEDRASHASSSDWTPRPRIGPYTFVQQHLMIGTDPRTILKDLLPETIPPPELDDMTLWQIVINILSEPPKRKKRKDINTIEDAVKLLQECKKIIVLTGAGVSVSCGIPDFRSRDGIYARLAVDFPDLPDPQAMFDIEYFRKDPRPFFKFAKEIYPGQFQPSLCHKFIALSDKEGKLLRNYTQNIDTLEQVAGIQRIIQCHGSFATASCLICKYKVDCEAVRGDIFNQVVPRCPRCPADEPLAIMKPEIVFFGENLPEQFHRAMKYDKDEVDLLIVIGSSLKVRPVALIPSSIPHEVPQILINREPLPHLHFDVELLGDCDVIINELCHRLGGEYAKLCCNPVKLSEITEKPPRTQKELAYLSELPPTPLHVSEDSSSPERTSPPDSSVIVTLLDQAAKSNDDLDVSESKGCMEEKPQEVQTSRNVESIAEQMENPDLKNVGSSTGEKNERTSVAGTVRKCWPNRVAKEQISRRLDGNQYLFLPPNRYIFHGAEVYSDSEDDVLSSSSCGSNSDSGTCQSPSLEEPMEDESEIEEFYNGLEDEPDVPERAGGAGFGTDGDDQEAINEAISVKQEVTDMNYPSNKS

With H3K9 thioacetyl peptide (H3K9 TAc), the IC50 (µM), inhibition of sirtuin deacylase activity in the assay with human Sirt5 (human) is over 100 µM; with human Sirt1 (human), 1 µM; with human Sirt3 (human), 2 µM; with human Sirt2 (human) it was 2 µM.

The values above are taken from patent US20150057236A1.
